Measured values from US20260174875A1 (Novo Nordisk A/S, priority 2023, published 2026).
Read-outs that look alike come from different tables or passages of the source. Numbered stars: 1 amine (or outer) side, 2 acyl side, 3 side chain; on linkers, the order of the positions; unused ones are H or OH. Square brackets hold non-standard residues; d marks the D form. Side chains are listed from the residue outwards. * marks the point of attachment. Chem. 22 = C20 diacid gamma-Glu, O=C(O)CCCCCCCCCCCCCCCCCCC(=O)N[C@@H](CCC(=O)*)C(=O)O; C20 diacid = O=C(O)CCCCCCCCCCCCCCCCCCC(=O)*; C18 diacid = O=C(O)CCCCCCCCCCCCCCCCC(=O)*; γGlu = O=C(O)[C@H](CCC(=O)[*:2])N[*:1]; Chem. 28 = not defined here; Chem. 29 = not defined here; AEEA = NCCOCCOCC(=O)O; Aib = CC(C)(N)C(=O)O

T1: human GIP receptor (hGIPR) (Homo sapiens, UniProt P48546)
T1 construct: expressed in transfected cells
T1 sequence (P48546 22-466): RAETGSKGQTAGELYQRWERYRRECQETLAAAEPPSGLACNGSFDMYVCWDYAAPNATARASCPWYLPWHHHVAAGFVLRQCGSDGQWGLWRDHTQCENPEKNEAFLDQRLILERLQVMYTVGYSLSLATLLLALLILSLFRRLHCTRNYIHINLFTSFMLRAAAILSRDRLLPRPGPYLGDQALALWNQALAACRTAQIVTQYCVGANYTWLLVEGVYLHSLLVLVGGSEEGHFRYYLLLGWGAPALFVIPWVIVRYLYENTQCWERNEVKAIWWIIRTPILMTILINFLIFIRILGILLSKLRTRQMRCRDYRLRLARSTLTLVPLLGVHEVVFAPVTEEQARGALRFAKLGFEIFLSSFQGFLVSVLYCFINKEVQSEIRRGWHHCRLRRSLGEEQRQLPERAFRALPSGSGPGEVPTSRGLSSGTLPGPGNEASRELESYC

T2: human amylin-3(a) receptor (human, UniProt P30988 25-474; O60896 24-148)
T2 sequence (looked up) 1: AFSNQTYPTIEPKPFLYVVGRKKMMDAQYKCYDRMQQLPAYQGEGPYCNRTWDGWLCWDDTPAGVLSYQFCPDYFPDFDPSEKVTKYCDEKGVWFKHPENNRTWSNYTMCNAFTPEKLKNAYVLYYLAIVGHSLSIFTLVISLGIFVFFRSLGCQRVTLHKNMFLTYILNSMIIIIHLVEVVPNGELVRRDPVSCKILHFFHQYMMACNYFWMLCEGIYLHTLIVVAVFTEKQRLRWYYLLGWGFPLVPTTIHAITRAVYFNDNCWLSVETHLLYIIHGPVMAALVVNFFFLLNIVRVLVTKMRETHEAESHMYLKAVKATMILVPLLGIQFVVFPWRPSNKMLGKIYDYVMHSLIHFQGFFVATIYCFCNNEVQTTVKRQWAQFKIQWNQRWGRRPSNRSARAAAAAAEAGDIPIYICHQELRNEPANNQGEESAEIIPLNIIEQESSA
T2 sequence (looked up) 2: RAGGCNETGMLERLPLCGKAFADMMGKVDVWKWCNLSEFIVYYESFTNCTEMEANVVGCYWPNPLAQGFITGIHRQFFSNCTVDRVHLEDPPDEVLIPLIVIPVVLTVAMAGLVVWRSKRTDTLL

T3: human GIP receptor (human, UniProt P48546 22-466)
T3 sequence (looked up): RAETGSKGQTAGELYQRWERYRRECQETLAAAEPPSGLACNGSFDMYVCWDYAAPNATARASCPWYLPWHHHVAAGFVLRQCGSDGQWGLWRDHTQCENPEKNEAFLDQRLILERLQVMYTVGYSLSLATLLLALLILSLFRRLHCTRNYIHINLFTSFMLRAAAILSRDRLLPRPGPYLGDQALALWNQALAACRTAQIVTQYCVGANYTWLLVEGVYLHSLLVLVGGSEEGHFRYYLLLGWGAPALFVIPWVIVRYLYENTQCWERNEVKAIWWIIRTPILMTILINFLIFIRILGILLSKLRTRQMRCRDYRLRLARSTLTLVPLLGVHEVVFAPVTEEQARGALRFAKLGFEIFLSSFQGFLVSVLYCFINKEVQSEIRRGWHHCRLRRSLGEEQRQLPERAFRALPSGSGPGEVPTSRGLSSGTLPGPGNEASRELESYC


Key:
[1] = molecular target: T1, human GIP receptor (hGIPR); experiment: GIP receptor assay, method A (CRE-luciferase reporter, BHK cells); type: cell-based
Outline: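 Receptor activation was read as luciferase luminescence in hGIPR-expressing BHK CRE-Luc cells after 3 h compound exposure at 37 °C. Titrations (10-fold, 7 points, duplicate) ran in buffer containing 1% ovalbumin, with 1% HSA final or without; EC50 in pM fitted by four-parameter logistic model, Hill slope shared.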

[2] = molecular target: T4, human amylin receptor (hAMYR3) (Homo sapiens, UniProt O60896+P30988); experiment: Amylin receptor assay, method A (CRE-luciferase reporter, BHK cells); type: cell-based
T4 construct: host or cells: BHK cells (Hollex-1 line expressing hCTR(a) and CRE-Luc), further transfected with human RAMP3

[3] = molecular target: T5, human GLP-1 receptor (hGLP-1R) (Homo sapiens, UniProt P43220); experiment: GLP-1 receptor assay, method A (CRE-luciferase reporter, BHK cells); type: cell-based
T5 construct: expressed in transfected cells
Outline: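 Read-out: steadylite Plus luminescence after 30 min shaking at room temperature in the dark. hGLP-1R BHK CRE-Luc cells were stimulated for 3 h at 37° C, 5% CO2. Runs were done in the absence and presence of 1% (w/v) HSA.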

[4] = molecular target: T2, human amylin-3(a) receptor; experiment: cell-based or functional assay
human GLP-1 receptor = human GLP-1 receptor (human, UniProt P43220 24-463); experiment: cell-based or functional assay
human GIP receptor = molecular target: T3, human GIP receptor; experiment: cell-based or functional assay
[5] = hGIPR Potency, 1% HSA, EC50, method A, in the presence of 1% HSA
[6] = method A, absence of HSA, read-out: hGIPR Potency, no HSA, EC50
[7] = hAMYR3 Potency, 1% HSA, EC50, method A, in the presence of 1% HSA
[8] = method A, absence of HSA, read-out: hAMYR3 Potency, no HSA, EC50
[9] = hGLP-1R Potency, 1% HSA, EC50, method A, in the presence of 1% HSA
[10] = method A, absence of HSA, read-out: hGLP-1R Potency, no HSA, EC50

T5 sequence (P43220 24-463): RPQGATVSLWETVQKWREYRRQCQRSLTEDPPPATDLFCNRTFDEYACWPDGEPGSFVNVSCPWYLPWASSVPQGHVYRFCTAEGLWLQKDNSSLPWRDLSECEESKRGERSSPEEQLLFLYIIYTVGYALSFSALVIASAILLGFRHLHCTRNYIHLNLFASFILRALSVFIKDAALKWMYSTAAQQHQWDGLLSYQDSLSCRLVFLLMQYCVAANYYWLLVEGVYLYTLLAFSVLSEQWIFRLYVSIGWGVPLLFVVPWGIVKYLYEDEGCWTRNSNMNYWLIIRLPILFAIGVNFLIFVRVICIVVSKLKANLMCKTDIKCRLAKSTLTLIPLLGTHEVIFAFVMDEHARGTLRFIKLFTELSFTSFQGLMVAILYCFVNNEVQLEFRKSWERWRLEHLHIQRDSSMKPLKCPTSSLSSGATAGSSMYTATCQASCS

EC50 [1, 5] [nM] | EC50 [1, 6] [nM] | EC50 [2, 7] [nM] | EC50 [2, 8] [nM] | EC50 [3, 9] [nM] | EC50 [3, 10] [nM] | hAMYR3 Potency, no HSA, EC50 [pM] [4] [pM] | hGLP-1R Potency, no HSA, EC50 [pM] (human GLP-1 receptor) | hGIPR Potency, no HSA, EC50 [pM] (human GIP receptor) | Molecule
0.0295 | 0.0029 | 0.377 | 0.00391 | 0.13 | 0.0161 |  |  |  | Y[Aib]EGTFTSDYSILLEEQAAREFIEWLLAGGPSRGEASHLSTAQTQRLSAELHK([AEEA-AEEA-γGlu-C20 diacid])LATLPRTETGSGSP-NH2 [Compound 94]
 | 0.00863 |  | 0.012 |  | 0.0412 |  |  |  | Y[Aib]EGTFTSDYSILLEEQAAREFIEWLLAGGPSK([AEEA-AEEA-γGlu-C18 diacid])GALAQTLAQTLASELSTAALGRLSAELHELATLPRTETGSGSP-NH2 [Compound 21]
0.132 | 0.00263 | 0.0624 | 0.00469 | 0.112 | 0.00478 |  |  |  | H[Aib]HGTFTSDYSILLEEQAAREFIEWLLAGGPSK([AEEA-AEEA-γGlu-C18 diacid])GALAQTLGTNEASHLSTAQTQRLSAELHELATLPRTETGSGSP-NH2 [Compound 45]
 | 0.00234 |  | 0.00424 |  | 0.0515 |  |  |  | Y[Aib]EGTFTSDYSILLEEQAAREFIEWLLAGGPSK([AEEA-AEEA-γGlu-C18 diacid])GALAQTLFVNQASELSTAALGRLSAELHELATLPRTETGSGSP-NH2 [Compound 24]
 |  |  |  |  |  | 3.02 | 28.8 | 5.56 | Compound 54 (reading uncertain) peptide: Y[Aib]EGTFTSDYSILLEEQAAREFIEWLLAGGPSSGAGQAPGQAPGASK(Chem. 28)LSTAQTQRLSAELHRLATLPRTETGSGSP-NH2
 |  |  |  |  |  | 3.42 | 61.3 | 8.01 | Compound 42 (peptide) peptide: Y[Aib]EGTFTSDYSILLEEQAAREFIEWLLAGGPSSK(Chem. 22)APPPSGGGEASELSTAALGRLSAELHRLATLPRTETGSGSP-NH2
 |  |  |  |  |  | 12 | 41.2 | 8.63 | Compound 21 (reading uncertain) peptide: Y[Aib]EGTFTSDYSILLEEQAAREFIEWLLAGGPSK(Chem. 28)GALAQTLAQTLASELSTAALGRLSAELHELATLPRTETGSGSP-NH2
 |  |  |  |  |  | 2.32 | 5.25 | 2.39 | Compound 66 (peptide) peptide: H[Aib]HGTFTSDYSILLEEQAAREFIEWLLAGGPSK([AEEA-AEEA-γGlu-C18 diacid])GEASQLSTAALGRLSAELHHLATLPRTETGSGSP-NH2
 |  |  |  |  |  | 2.26 | 37.9 | 2.4 | Compound 13 (peptide) peptide: Y[Aib]EGTFTSDYSILLEEQAAREFIEWLLAGGPSK([AEEA-AEEA-γGlu-C18 diacid])GAPPPSGGGGASELSTAALGRLSAELHRLATLPRTETGSGSP-NH2
 |  |  |  |  |  | 3.93 | 52.8 | 7.25 | Compound 18 (reading uncertain) peptide: Y[Aib]EGTFTSDYSILLEEQAAREFIEWLLAGGPSK(Chem. 29)GEASELSTAALGRLSAELHRLATLPRTETGSGSP-NH2
 |  |  |  |  |  | 5.49 | 23.3 | 1.63 | Compound 40 (reading uncertain; also: VARIANT 50 Aib (position 50 is T), mods: Aib at 2) peptide: Y[Aib]EGTFTSDYSILLEEQAAREFIEWLLAGGPSK(Chem. 28)GGGGEGGGEGEASHLSTAQTQRLSAELHELATLPRTETGSGSP-NH2
 |  |  |  |  |  | 6.81 | 21.7 | 1.7 | Compound 34 (reading uncertain) peptide: Y[Aib]EGTFTSDYSILLEEQAAREFIEWLLAGGPSK(Chem. 28)GEASHLSTAQTQRLSAELHELATLPRTETGSGSP-NH2
 |  |  |  |  |  | 3.65 | 40.6 | 4.82 | Compound 20 (reading uncertain) peptide: Y[Aib]EGTFTSDYSILLEEQAAREFIEWLLAGGPSK(Chem. 29)GASELSTAALGRLSAELHRLATLPRTETGSGSP-NH2
 |  |  |  |  |  | 4.21 | 23.3 | 1.97 | Compound 35 (reading uncertain) peptide: Y[Aib]EGTFTSDYSILLEEQAAREFIEWLLAGGPSK(Chem. 28)GEASHLSTAQTARLSAELHELATLPRTETGSGSP-NH2
 |  |  |  |  |  | 4.41 | 4.59 | 5.42 | Compound 46 (reading uncertain) peptide: H[Aib]HGTFTSDYSILLEEQAAREFIEWLLAGGPSK(Chem. 28)GAGQAPGQAPGASHLSTAALGRLSAELHRLATLPRTETGSGSP-NH2
 |  |  |  |  |  | 4.24 | 57.9 | 9.44 | Compound 19 (reading uncertain) peptide: Y[Aib]EGTFTSDYSILLEEQAAREFIEWLLAGGPSK(Chem. 28)GEASELSTAALGRLSAELHRLATLPRTETGSGSP-NH2
 |  |  |  |  |  | 6.72 | 40.8 | 5.02 | Compound 41 (peptide) peptide: Y[Aib]EGTFTSDYSILLEEQAAREFIEWLLAGGPSK(Chem. 22)GAPPPSGGGEASELSTAALGRLSAELHRLADLPRTETGSGSP-NH2
 |  |  |  |  |  | 3.8 | 3.68 | 6.3 | Compound 44 (reading uncertain) peptide: H[Aib]HGTFTSDYSILLEEQAAREFIEWLLAGGPSK(Chem. 28)GALAQTLGTNEASELSTAALGRLSAELHRLATLPRTETGSGSP-NH2
 |  |  |  |  |  | 10.9 | 11.3 | 35.8 | Compound 22 (reading uncertain) peptide: H[Aib]HGTFTSDYSILLEEQAAREFIEWLLAGGPSK(Chem. 28)GAPPPSLAQTLAQTLASELSTAALGRLSAELHELATLPRTETGSGSP-NH2
 |  |  |  |  |  | 10.3 | 32.1 | 3.11 | Compound 33 (reading uncertain) peptide: Y[Aib]EGTFTSDYSILLEEQAAREFIEWLLAGGPSK(Chem. 28)GAPPEASELSTAALGRLSAELHELATLPRTETGSGSP-NH2
